This is an account of results in PMC7737607 (The EMBO Journal, 2020).

The assay has as its target T1, Cap-Gly-CC1a-p150Glued-V5 (human, UniProt Q14203-1 1-358).
T1 construct: ATUM ordered gene ID #391071; also called Cap-Gly-CC1-p150Glued-V5; p150Glued-V5-tagged fragment; source: generated and purchased from ATUM Bio, purified (streptavidin-column based methods)
Briefly: pull-down; purified proteins mixed 1:1, with or without FLAG-EB1 WT or ΔY C-term, 1 h at 4°C in 20 mM Tris-HCl pH 7.4, 350 mM NaCl, 1 mM 2-mercaptoethanol; p150Glued-V5 fragment captured on anti-V5 antibody-coated beads, 2 h at 4°C; Western blot. Conditions: both partners purified. A general note: Immunoblotting shows a protein as a band on a membrane.

T1 sequence (Q14203 1-358): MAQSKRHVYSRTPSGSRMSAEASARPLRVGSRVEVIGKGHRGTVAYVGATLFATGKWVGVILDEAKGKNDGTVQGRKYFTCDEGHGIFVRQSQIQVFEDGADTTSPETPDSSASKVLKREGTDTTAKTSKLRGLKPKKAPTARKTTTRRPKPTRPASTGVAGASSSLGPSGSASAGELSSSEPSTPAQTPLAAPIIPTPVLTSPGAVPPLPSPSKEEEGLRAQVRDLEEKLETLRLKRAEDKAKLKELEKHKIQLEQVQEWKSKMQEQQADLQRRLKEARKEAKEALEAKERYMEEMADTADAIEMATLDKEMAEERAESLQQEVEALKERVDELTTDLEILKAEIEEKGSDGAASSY

B1: FLAG-EB1 WT C-term (domain or fragment, human, UniProt Q15691 191-268, looked up)
chain: DEAAELMQQVNVLKLTVEDLEKERDFYFGKLRNIELICQENEGENDPVLQRIVDILYATDEGFVIPDEGGPQEEQEEY
notes: ATUM ordered gene ID #394359; also called FLAG-EB1 C-terminal; FLAG-tagged EB1 WT; source: generated and purchased from ATUM Bio, purified (streptavidin-column based methods)
For B1, the binding result is “binds”.
